# Laboratory results reported in IntAct's records for PubMed 29858488.
# B1: Motile sperm domain-containing protein 2 (Homo sapiens), Q8NHP6 (parent)
# chain: MAENHAQNKAKLISETRRRFEAEYVTDKSDKYDARDVERLQQDDNWVESYLSWRHNIVDETLKMLDESFQWRKEISVNDLNESSIPRWLLEIGVIYLHGYDKEGNKLFWIRVKYHVKDQKTILDKKKLIAFWLERYAKRENGKPVTVMFDLSETGINSIDMDFVRFIINCFKVYYPKYLSKIVIFDMPWLMNAAFKIVKTWLGPEAVSLLKFTSKNEVQDYVSVEYLPPHMGGTDPFKYSYPPLVDDDFQTPLCENGPITSEDETSSKEDIESDGKETLETISNEEQTPLLKKINPTESTSKAEENEKVDSKVKAFKKPLSVFKGPLLHISPAEELYFGSTESGEKKTLIVLTNVTKNIVAFKVRTTAPEKYRVKPSNSSCDPGASVDIVVSPHGGLTVSAQDRFLIMAAEMEQSSGTGPAELTQFWKEVPRNKVMEHRLRCHTVESSKPNTLTLKDNAFNMSDKTSEDICLQLSRLLESNRKLEDQVQRCIWFQQLLLSLTMLLLAFVTSFFYLLYS
# partner: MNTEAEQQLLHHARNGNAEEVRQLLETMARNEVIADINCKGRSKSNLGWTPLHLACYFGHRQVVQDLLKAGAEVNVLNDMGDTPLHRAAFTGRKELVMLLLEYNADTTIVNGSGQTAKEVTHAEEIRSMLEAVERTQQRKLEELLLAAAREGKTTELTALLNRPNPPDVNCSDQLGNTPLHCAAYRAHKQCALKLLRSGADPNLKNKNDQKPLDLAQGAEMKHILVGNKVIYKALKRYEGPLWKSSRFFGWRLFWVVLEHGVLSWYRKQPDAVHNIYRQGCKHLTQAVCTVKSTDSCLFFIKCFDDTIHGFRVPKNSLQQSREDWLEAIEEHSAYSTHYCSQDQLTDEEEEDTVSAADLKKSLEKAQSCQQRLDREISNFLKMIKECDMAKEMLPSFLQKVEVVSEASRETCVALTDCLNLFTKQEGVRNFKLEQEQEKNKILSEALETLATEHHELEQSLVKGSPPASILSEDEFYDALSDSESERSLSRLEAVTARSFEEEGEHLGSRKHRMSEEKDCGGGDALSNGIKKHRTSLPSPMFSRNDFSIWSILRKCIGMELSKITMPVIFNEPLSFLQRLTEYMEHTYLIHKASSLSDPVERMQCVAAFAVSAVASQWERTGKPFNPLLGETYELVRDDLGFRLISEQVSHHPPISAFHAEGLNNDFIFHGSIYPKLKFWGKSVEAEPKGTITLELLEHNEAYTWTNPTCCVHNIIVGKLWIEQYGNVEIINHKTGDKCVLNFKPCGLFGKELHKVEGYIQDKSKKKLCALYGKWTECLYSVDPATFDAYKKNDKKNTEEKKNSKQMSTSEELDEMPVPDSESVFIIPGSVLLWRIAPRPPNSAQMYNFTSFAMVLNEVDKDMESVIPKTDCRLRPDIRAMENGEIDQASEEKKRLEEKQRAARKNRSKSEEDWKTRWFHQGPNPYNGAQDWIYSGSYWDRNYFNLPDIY
# B2: STARD3 N-terminal-like protein (Homo sapiens), O95772 (parent)
# chain: MNHLPEDMENALTGSQSSHASLRNIHSINPTQLMARIESYEGREKKGISDVRRTFCLFVTFDLLFVTLLWIIELNVNGGIENTLEKEVMQYDYYSSYFDIFLLAVFRFKVLILAYAVCRLRHWWAIALTTAVTSAFLLAKVILSKLFSQGAFGYVLPIISFILAWIETWFLDFKVLPQEAEEENRLLIVQDASERAALIPGGLSDGQFYSPPESEAGSEEAEEKQDSEKPLLEL
# partner: B1 chain
# B3: Vesicle-associated membrane protein-associated protein A (Homo sapiens), Q9P0L0 (parent)
# chain: MASASGAMAKHEQILVLDPPTDLKFKGPFTDVVTTNLKLRNPSDRKVCFKVKTTAPRRYCVRPNSGIIDPGSTVTVSVMLQPFDYDPNEKSKHKFMVQTIFAPPNTSDMEAVWKEAKPDELMDSKLRCVFEMPNENDKLNDMEPSKAVPLNASKQDGPMPKPHSVSLNDTETRKLMEECKRLQGEMMKLSEENRHLRDEGLRLRKVAHSDKPGSTSTASFRDNVTSPLPSLLVVIAAIFIGFFLGKFIL
# partner: B1 partner
# B4: Ceramide transfer protein (Homo sapiens), Q9Y5P4 (parent)
# chain: MSDNQSWNSSGSEEDPETESGPPVERCGVLSKWTNYIHGWQDRWVVLKNNALSYYKSEDETEYGCRGSICLSKAVITPHDFDECRFDISVNDSVWYLRAQDPDHRQQWIDAIEQHKTESGYGSESSLRRHGSMVSLVSGASGYSATSTSSFKKGHSLREKLAEMETFRDILCRQVDTLQKYFDACADAVSKDELQRDKVVEDDEDDFPTTRSDGDFLHSTNGNKEKLFPHVTPKGINGIDFKGEAITFKATTAGILATLSHCIELMVKREDSWQKRLDKETEKKRRTEEAYKNAMTELKKKSHFGGPDYEEGPNSLINEEEFFDAVEAALDRQDKIEEQSQSEKVRLHWPTSLPSGDAFSSVGTHRFVQKPYSRSSSMSSIDLVSASDDVHRFSSQVEEMVQNHMTYSLQDVGGDANWQLVVEEGEMKVYRREVEENGIVLDPLKATHAVKGVTGHEVCNYFWNVDVRNDWETTIENFHVVETLADNAIIIYQTHKRVWPASQRDVLYLSVIRKIPALTENDPETWIVCNFSVDHDSAPLNNRCVRAKINVAMICQTLVSPPEGNQEISRDNILCKITYVANVNPGGWAPASVLRAVAKREYPKFLKRFTSYVQEKTAGKPILF
# partner: B1 chain
# B5: Motile sperm domain-containing protein 2 (Homo sapiens), Q8NHP6 (parent)
# chain: B1 chain
# partner: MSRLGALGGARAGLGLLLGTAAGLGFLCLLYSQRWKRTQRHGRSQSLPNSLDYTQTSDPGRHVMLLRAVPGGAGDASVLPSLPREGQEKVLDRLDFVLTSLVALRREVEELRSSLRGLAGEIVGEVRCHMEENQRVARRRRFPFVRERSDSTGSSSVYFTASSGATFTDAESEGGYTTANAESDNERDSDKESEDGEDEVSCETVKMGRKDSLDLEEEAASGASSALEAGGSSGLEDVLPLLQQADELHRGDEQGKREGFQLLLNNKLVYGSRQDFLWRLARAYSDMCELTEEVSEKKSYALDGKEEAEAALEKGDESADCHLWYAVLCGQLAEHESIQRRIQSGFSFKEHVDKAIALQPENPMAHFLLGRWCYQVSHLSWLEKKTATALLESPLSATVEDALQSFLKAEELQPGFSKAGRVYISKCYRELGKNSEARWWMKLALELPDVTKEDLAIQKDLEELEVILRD
# B6: Oxysterol-binding protein-related protein 1 (Homo sapiens), Q9BXW6 (parent)
# chain: B1 partner
# partner: B1 chain
# Variants of: B1
# Conditions: with osbl1_human OSBPL1A
row,Variant,effect of a mutation on the interaction
1,MAENHAQNKAKLISETRRRFEAEYVTDKSDKYDARDVERLQQDDNWVESYLSWRHNIVDETLKMLDESFQWRKEISVNDLNESSIPRWLLEIGVIYLHGYDKEGNKLFWIRVKYHVKDQKTILDKKKLIAFWLERYAKRENGKPVTVMFDLSETGINSIDMDFVRFIINCFKVYYPKYLSKIVIFDMPWLMNAAFKIVKTWLGPEAVSLLKFTSKNEVQDYVSVEYLPPHMGGTDPFKYSYPPLVDDDFQTPLCENGPITSEDETSSKEDIESDGKETLETISNEEQTPLLKKINPTESTSKAEENEKVDSKVKAFKKPLSVFKGPLLHISPAEELYFGSTESGEKKTLIVLTNVTKNIVAFKVRTTAPEKYRVKPSNSSCDPGASVDIVVSPHGGLTVSAQDDFDIMAAEMEQSSGTGPAELTQFWKEVPRNKVMEHRLRCHTVESSKPNTLTLKDNAFNMSDKTSEDICLQLSRLLESNRKLEDQVQRCIWFQQLLLSLTMLLLAFVTSFFYLLYS [R404D;L406D],disrupting interaction strength

# Variants of: B2
# Conditions: with mspd2_human MOSPD2, Q8NHP6
row,Variant,effect of a mutation on the interaction
1,MNHLPEDMENALTGSQSSHASLRNIHSINPTQLMARIESYEGREKKGISDVRRTFCLFVTFDLLFVTLLWIIELNVNGGIENTLEKEVMQYDYYSSYFDIFLLAVFRFKVLILAYAVCRLRHWWAIALTTAVTSAFLLAKVILSKLFSQGAFGYVLPIISFILAWIETWFLDFKVLPQEAEEENRLLIVQDASERAALIPGGLSDGQAASPPESEAGSEEAEEKQDSEKPLLEL [F208A;Y209A],disrupting interaction strength

# Variants of: B3
# Conditions: with osbl1_human OSBPL1A
row,Variant,effect of a mutation on the interaction
1,MASASGAMAKHEQILVLDPPTDLKFKGPFTDVVTTNLKLRNPSDRKVCFKVKTTAPRRYCVRPNSGIIDPGSTVTVSVMLQPFDYDPNEKSKHDFDVQTIFAPPNTSDMEAVWKEAKPDELMDSKLRCVFEMPNENDKLNDMEPSKAVPLNASKQDGPMPKPHSVSLNDTETRKLMEECKRLQGEMMKLSEENRHLRDEGLRLRKVAHSDKPGSTSTASFRDNVTSPLPSLLVVIAAIFIGFFLGKFIL [K94D;M96D],disrupting interaction strength

# Variants of: B4
# Conditions: with mspd2_human MOSPD2, Q8NHP6
row,Variant,effect of a mutation on the interaction
1,D324A,disrupting interaction strength

# Variants of: B5
# Conditions: with rmd3_human RMDN3, Q96TC7
row,Variant,effect of a mutation on the interaction
1,MAENHAQNKAKLISETRRRFEAEYVTDKSDKYDARDVERLQQDDNWVESYLSWRHNIVDETLKMLDESFQWRKEISVNDLNESSIPRWLLEIGVIYLHGYDKEGNKLFWIRVKYHVKDQKTILDKKKLIAFWLERYAKRENGKPVTVMFDLSETGINSIDMDFVRFIINCFKVYYPKYLSKIVIFDMPWLMNAAFKIVKTWLGPEAVSLLKFTSKNEVQDYVSVEYLPPHMGGTDPFKYSYPPLVDDDFQTPLCENGPITSEDETSSKEDIESDGKETLETISNEEQTPLLKKINPTESTSKAEENEKVDSKVKAFKKPLSVFKGPLLHISPAEELYFGSTESGEKKTLIVLTNVTKNIVAFKVRTTAPEKYRVKPSNSSCDPGASVDIVVSPHGGLTVSAQDDFDIMAAEMEQSSGTGPAELTQFWKEVPRNKVMEHRLRCHTVESSKPNTLTLKDNAFNMSDKTSEDICLQLSRLLESNRKLEDQVQRCIWFQQLLLSLTMLLLAFVTSFFYLLYS [R404D;L406D],disrupting interaction strength

# Variants of: B6
# Conditions: with mspd2_human MOSPD2, Q8NHP6
row,Variant,effect of a mutation on the interaction
1,F476A;Y477A,disrupting interaction strength
